{"source": "the supplement of paper PMC11246515", "test": "total protein half-life in vivo (active degradation + dilution); higher = more stable protein", "key": {"[1]": {"conditions": "E. coli NCM3722 delta-clpP delta-lon delta-hslV, growth: N-lim chemostat, doubling time 6 h"}, "[2]": {"conditions": "E. coli NCM3722 delta-hslV, growth: N-lim chemostat, doubling time 6 h"}, "[3]": {"conditions": "E. coli NCM3722 delta-lon, growth: N-lim chemostat, doubling time 6 h"}, "[4]": {"conditions": "E. coli NCM3722 delta-smpB, growth: N-lim chemostat, doubling time 6 h"}, "[5]": {"conditions": "wild type E. coli NCM3722, growth: C-lim chemostat, doubling time 3 h"}, "[6]": {"conditions": "wild type E. coli NCM3722, growth: C-lim chemostat, doubling time 12 h"}, "[7]": {"conditions": "wild type E. coli NCM3722, growth: N-lim chemostat, doubling time 6 h"}, "[8]": {"conditions": "wild type E. coli NCM3722, growth: P-lim chemostat, doubling time 6 h"}, "[9]": {"conditions": "wild type E. coli NCM3722, growth: P-lim chemostat, doubling time 12 h"}, "[10]": {"conditions": "E. coli NCM3722 delta-clpP, growth: N-lim chemostat, doubling time 6 h"}, "[11]": {"conditions": "wild type E. coli NCM3722, growth: N-lim chemostat, doubling time 12 h"}}, "note": "± gives the standard deviation of the averaged measurements."}
{"sequence": "MSKFLDRFRYFKQKGETFADGHGQLLNTNRDWEDGYRQRWQHDKIVRSTHGVNCTGSCSWKIYVKNGLVTWETQQTDYPRTRPDLPNHEPRGCPRGASYSWYLYSANRLKYPMMRKRLMKMWREAKALHSDPVEAWASIIEDADKAKSFKQARGRGGFVRSSWQEVNELIAASNVYTIKNYGPDRVAGFSPIPAMSMVSYASGARYLSLIGGTCLSFYDWYCDLPPASPQTWGEQTDVPESADWYNSSYIIAWGSNVPQTRTPDAHFFTEVRYKGTKTVAVTPDYAEIAKLCDLWLAPKQGTDAAMALAMGHVMLREFHLDNPSQYFTDYVRRYTDMPMLVMLEERDGYYAAGRMLRAADLVDALGQENNPEWKTVAFNTNGEMVAPNGSIGFRWGEKGKWNLEQRDGKTGEETELQLSLLGSQDEIAEVGFPYFGGDGTEHFNKVELENVLLHKLPVKRLQLADGSTALVTTVYDLTLANYGLERGLNDVNCATSYDDVKAYTPAWAEQITGVSRSQIIRIAREFADNADKTHGRSMIIVGAGLNHWYHLDMNYRGLINMLIFCGCVGQSGGGWAHYVGQEKLRPQTGWQPLAFALDWQRPARHMNSTSYFYNHSSQWRYETVTAEELLSPMADKSRYTGHLIDFNVRAERMGWLPSAPQLGTNPLTIAGEAEKAGMNPVDYTVKSLKEGSIRFAAEQPENGKNHPRNLFIWRSNLLGSSGKGHEFMLKYLLGTEHGIQGKDLGQQGGVKPEEVDWQDNGLEGKLDLVVTLDFRLSSTCLYSDIILPTATWYEKDDMNTSDMHPFIHPLSAAVDPAWEAKSDWEIYKAIAKKFSEVCVGHLGKETDIVTLPIQHDSAAELAQPLDVKDWKKGECDLIPGKTAPHIMVVERDYPATYERFTSIGPLMEKIGNGGKGIAWNTQSEMDLLRKLNYTKAEGPAKGQPMLNTAIDAAEMILTLAPETNGQVAVKAWAALSEFTGRDHTHLALNKEDEKIRFRDIQAQPRKIISSPTWSGLEDEHVSYNAGYTNVHELIPWRTLSGRQQLYQDHQWMRDFGESLLVYRPPIDTRSVKEVIGQKSNGNQEKALNFLTPHQKWGIHSTYSDNLLMLTLGRGGPVVWLSEADAKDLGIADNDWIEVFNSNGALTARAVVSQRVPAGMTMMYHAQERIVNLPGSEITQQRGGIHNSVTRITPKPTHMIGGYAHLAYGFNYYGTVGSNRDEFVVVRKMKNIDWLDGEGNDQVQESVK", "values": [{"measurement": "total protein half-life in vivo", "setting": "[1]", "result": "6.33 ± 1.8", "unit": "h"}, {"measurement": "total protein half-life in vivo", "setting": "[2]", "result": "5.88 ± 0.73", "unit": "h"}, {"measurement": "total protein half-life in vivo", "setting": "[3]", "result": "6.6 ± 0.84", "unit": "h"}, {"measurement": "total protein half-life in vivo", "setting": "[4]", "result": "4.97 ± 0.39", "unit": "h"}, {"measurement": "total protein half-life in vivo", "setting": "[5]", "result": 2.41, "unit": "h"}, {"measurement": "total protein half-life in vivo", "setting": "wild type E. coli NCM3722, growth: C-lim chemostat, doubling time 6 h", "result": 6.81, "unit": "h"}, {"measurement": "total protein half-life in vivo", "setting": "[6]", "result": 13.2, "unit": "h"}, {"measurement": "total protein half-life in vivo", "setting": "[7]", "result": "6.23 ± 0.94", "unit": "h"}, {"measurement": "total protein half-life in vivo", "setting": "[8]", "result": "5.64 ± 0.29", "unit": "h"}, {"measurement": "total protein half-life in vivo", "setting": "[9]", "result": "12.1 ± 1.3", "unit": "h"}]}
{"sequence": "MRTQWPSPAKLNLFLYITGQRADGYHTLQTLFQFLDYGDTISIELRDDGDIRLLTPVEGVEHEDNLIVRAARLLMKTAADSGRLPTGSGANISIDKRLPMGGGLGGGSSNAATVLVALNHLWQCGLSMDELAEMGLTLGADVPVFVRGHAAFAEGVGEILTPVDPPEKWYLVAHPGVSIPTPVIFKDPELPRNTPKRSIETLLKCEFSNDCEVIARKRFREVDAVLSWLLEYAPSRLTGTGACVFAEFDTESEARQVLEQAPEWLNGFVAKGANLSPLHRAML", "values": [{"measurement": "total protein half-life in vivo", "setting": "[10]", "result": "4.11 ± 0.64", "unit": "h"}, {"measurement": "total protein half-life in vivo", "setting": "[2]", "result": "4.05 ± 0.64", "unit": "h"}, {"measurement": "total protein half-life in vivo", "setting": "[3]", "result": "4.25 ± 0.41", "unit": "h"}, {"measurement": "total protein half-life in vivo", "setting": "[4]", "result": "4.04 ± 0.42", "unit": "h"}, {"measurement": "total protein half-life in vivo", "setting": "[5]", "result": "2.95 ± 0.33", "unit": "h"}, {"measurement": "total protein half-life in vivo", "setting": "[6]", "result": "10.5 ± 0.63", "unit": "h"}, {"measurement": "total protein half-life in vivo", "setting": "[7]", "result": "4.43 ± 0.23", "unit": "h"}, {"measurement": "total protein half-life in vivo", "setting": "[11]", "result": "6.789 ± 0.062", "unit": "h"}, {"measurement": "total protein half-life in vivo", "setting": "[8]", "result": "5.31 ± 0.33", "unit": "h"}, {"measurement": "total protein half-life in vivo", "setting": "[9]", "result": "10.47 ± 0.049", "unit": "h"}]}
{"sequence": "MEKLRVGIVFGGKSAEHEVSLQSAKNIVDAIDKSRFDVVLLGIDKQGQWHVSDASNYLLNADDPAHIALRPSATSLAQVPGKHEHQLIDAQNGQPLPTVDVIFPIVHGTLGEDGSLQGMLRVANLPFVGSDVLASAACMDKDVTKRLLRDAGLNIAPFITLTRANRHNISFAEVESKLGLPLFVKPANQGSSVGVSKVTSEEQYAIAVDLAFEFDHKVIVEQGIKGREIECAVLGNDNPQASTCGEIVLTSDFYAYDTKYIDEDGAKVVVPAAIAPEINDKIRAIAVQAYQTLGCAGMARVDVFLTPENEVVINEINTLPGFTNISMYPKLWQASGLGYTDLITRLIELALERHAADNALKTTM [P0A6J8]", "values": [{"measurement": "total protein half-life in vivo", "setting": "[1]", "result": "4.83 ± 0.18", "unit": "h"}, {"measurement": "total protein half-life in vivo", "setting": "[10]", "result": "5.65 ± 1.4", "unit": "h"}, {"measurement": "total protein half-life in vivo", "setting": "[2]", "result": "4.95 ± 0.063", "unit": "h"}, {"measurement": "total protein half-life in vivo", "setting": "[3]", "result": "6.41 ± 1.5", "unit": "h"}, {"measurement": "total protein half-life in vivo", "setting": "[4]", "result": "4.9 ± 0.21", "unit": "h"}, {"measurement": "total protein half-life in vivo", "setting": "[5]", "result": "2.99 ± 0.12", "unit": "h"}, {"measurement": "total protein half-life in vivo", "setting": "[6]", "result": "10.5 ± 0.68", "unit": "h"}, {"measurement": "total protein half-life in vivo", "setting": "[7]", "result": "4.89 ± 0.086", "unit": "h"}, {"measurement": "total protein half-life in vivo", "setting": "[11]", "result": "8.61 ± 0.1", "unit": "h"}, {"measurement": "total protein half-life in vivo", "setting": "[8]", "result": "5.56 ± 0.49", "unit": "h"}, {"measurement": "total protein half-life in vivo", "setting": "[9]", "result": "11.5 ± 0.22", "unit": "h"}]}
{"sequence": "MQTEQQRAVTRLCIQCGLFLLQHGAESALVDELSSRLGRALGMDSVESSISSNAIVLTTIKDGQCLTSTRKNHDRGINMHVVTEVQHIVILAEHHLLDYKGVEKRFSQIQPLRYPRWLVALMVGLSCACFCKLNNGGWDGAVITFFASTTAMYIRQLLAQRHLHPQINFCLTAFAATTISGLLLQLPTFSNTPTIAMAASVLLLVPGFPLINAVADMFKGHINTGLARWAIASLLTLATCVGVVMALTIWGLRGWV [P0ADD5]", "values": [{"measurement": "total protein half-life in vivo", "setting": "[6]", "result": 15.1, "unit": "h"}, {"measurement": "total protein half-life in vivo", "setting": "[8]", "result": 6.86, "unit": "h"}]}
